Data published in US20170198014A1, “POLYPEPTIDES AND THEIR USE FOR TREATING INFLUENZA” ([…] ITS CENTER FOR COMMERCIALIZATION, priority 2014, published 2017).

Key:
[1] = biological target: H1 (A/NewCaledonia/20/1999) (Influenza A virus, UniProt Q6WG00); settings: read-out: affinity constant via yeast surface display
[2] = biological target: H1 (A/Solomonislands/3/2006) (Influenza A virus, UniProt A7UPX0); settings: read-out: affinity constant via yeast surface display
[3] = biological target: H3 (A/Hong Kong/1/1968) (Influenza A virus, UniProt Q91MA7); settings: read-out: affinity constant via yeast surface display
[4] = biological target: H2 (A/Adachi/2/1957) (Influenza A virus, UniProt B5UA22); settings: read-out: affinity constant via yeast surface display
[5] = biological target: HA of H3N2 A/Hong Kong/1/1968 (Influenza A virus, UniProt Q91MA7); settings: read-out: Kd (binding constant)
[6] = biological target: H2N2 A/Adachi/2/1957 (Influenza A virus, UniProt B5UA22); settings: read-out: Kd (binding constant)
[7] = biological target: H1N1 A/New Caledonia/20/1999 (Influenza A virus, UniProt Q6WG00); settings: read-out: Kd (binding constant)
[8] = tested on: H1, H2 and H3; format: binding, Influenza A
[9] = biological target: H3N2 A/Victoria/361/2011; format: binding, Influenza A
[10] = tested on: H3N2 A/Victoria/361/2011; format: binding, Influenza A; remark: listed apart in the source

Sequence of H1 (A/Solomonislands/3/2006) (A7UPX0 1-565): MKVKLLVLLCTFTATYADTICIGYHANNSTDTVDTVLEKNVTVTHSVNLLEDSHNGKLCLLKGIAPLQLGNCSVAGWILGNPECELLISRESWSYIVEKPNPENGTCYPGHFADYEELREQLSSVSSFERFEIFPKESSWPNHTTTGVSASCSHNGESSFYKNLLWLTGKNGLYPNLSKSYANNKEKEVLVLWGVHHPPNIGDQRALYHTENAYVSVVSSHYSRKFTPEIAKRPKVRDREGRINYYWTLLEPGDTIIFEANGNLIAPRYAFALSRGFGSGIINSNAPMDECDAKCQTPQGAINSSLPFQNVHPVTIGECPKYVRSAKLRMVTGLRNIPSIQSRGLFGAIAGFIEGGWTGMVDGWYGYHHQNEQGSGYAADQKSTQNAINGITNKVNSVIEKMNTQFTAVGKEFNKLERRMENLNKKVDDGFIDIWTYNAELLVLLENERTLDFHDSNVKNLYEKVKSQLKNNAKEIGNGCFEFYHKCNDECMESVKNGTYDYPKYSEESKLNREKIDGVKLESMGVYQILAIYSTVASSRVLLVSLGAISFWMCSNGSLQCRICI

In the case of “GIVNVPN(P/C)NTTKYQQLARRAIAIYNNNQNAHLEFVENLN(V/C)KEQTGLGIMYYITLAATDDAGKKKIYKAKIAVVESAGWVAVSEFKLV [52Sing2]”, the Kd [1] is reported as 44.9 nM and the Kd [2] is reported as 17.2 nM.

“GIVNVPN(P/C)NTTKYQQLARSAIAIYNNHQNAHLEFVENLN(V/C)KEQVSYGAMYYITLAATDDAGKKKIYKAKVGVVESAGWVGVEEFKLV [52alt1-3]” showed a Kd [3] of 3 nM and a Kd [4] of 8.5 nM.

“GIVNVPN(P/C)NTTKYQQLARSAIAIYNYHQNAHLEFVENLN(V/C)KEQLGEGDMYYITLAATDDAGKKKIYKAKIGVVESAGWTGVEEFKLV [52NC-2]” was tested, and the Kd [3] was 3.9 nM, the Kd [5] was 180 nM and the Kd [1] was 27.2 nM. For the same substance, the Kd [6] was 289 nM, the Kd [7] was 534 nM and the “binding to HA subtypes” value [8] was “binding to all three subtypes H1, H2 and H3”. The “Kd (binding constant)” value [9] was “could not be detected”, the Kd [2] was 4.4 nM and the “binding by yeast display titrations” value [10] was “could not be detected”. The Kd [4] was 9.6 nM.

Work on “GIVNVPN(P/C)NTTKYQQLARSAIAIYNYHQNAHLEFVENLN(V/C)KEQVGGMNMYYITLAATDDAGKKKIYKAKVGVVESAGWKGVEEFKLV [52solo1]” yielded a Kd [3] of 35.7 nM, a Kd [1] of 20.7 nM and a Kd [2] of 1.8 nM. For the same substance, the Kd [4] was over 350 nM.

For “GIVNVPN(P/C)NTTKYQQLARSAIAVYNYHQNAHLEFVENLN(V/C)KEQIAGKTMYYITLAATDDAGKKKIYKAKVGVVESAGWEGVEEFKLV [52solo2]”, the Kd [1] was 9.1 nM and the Kd [2] was 1.7 nM.
